Laboratory results published in patent US20210340225A1 (HARBOUR ANTIBODIES, published 2021).

B1: 49F1 VH41 VL42-4 (antibody, V domains shown)
VH: QVQLVQSGAEVKKPGSSVKVSCKASGGTFSSYAINWVRQAPGQGLEWMGGIIPIFGTANSAQKFQGRVTITADKSTSTAYMELSSLRSEDTAVYYCAREAGIPVAGLADWGQGTLVTVSS
VL: DIQMTQSPSTLSASVGDRVTITCRASQSISSYLNWYQQKPGKAPKLLIYKASSLESGVPSRFSGSGSGTEFTLTISSLQPDDFGTYYCQQYNSYYTFGQGTKLEIK
B2: 47D11 fully human IgG1 monoclonal antibody (antibody, V domains shown)
VH: QVQLQESGPGLVKPSETLSLTCSVSGGSISSHYWSWIRQPPGKGLEWIGYIYYSGSTNHNPSLKSRVTISVDTSKNQFSLKLSSVTAADTAVYYCARGVLLWFGEPIFEIWGQGTMVTVSS
VL: EIVMTQSPATLSVSPGERATLSCRASQSVSSSLAWYQQKPGQAPRLLIYGASTRAPGIPARFSGSGSGTEFTLTISSLQSEDFAVYYCQQYNNWPLTFGGGTKVEIKR

Experiments:
[1] = biological target: T1, SARS-CoV-2 spike S1B receptor binding domain (SARS2-S1B), residues 329-538, Strep-tagged (SARS-CoV-2 (strain Wuhan-Hu-1), UniProt P0DTC2 329-538); assay: ELISA, serial dilution of supernatant after transfection
[2] = biological target: T2, SARS-CoV spike [change] receptor binding domain (SARS-[change]), residues 325-533, Strep-tagged (SARS-CoV, UniProt P59594 325-533); assay: as above
[3] = biological target: T1, SARS-CoV-2 spike S1B receptor binding …
[4] = biological target: T2, SARS-CoV spike [change] receptor …
[5] = biological target: T1, SARS-CoV-2 spike S1B receptor binding …; remark: listed apart in the source
[6] = biological target: T3, SARS-CoV-2 spike ectodomain (SARS2-Secto), residues 1-1,213, with C-terminal trimerization motif and Strep-tag (SARS-CoV-2 (strain Wuhan-Hu-1), UniProt P0DTC2 14-1213)
[7] = biological target: T2, SARS-CoV spike [change] receptor …; remark: listed apart in the source
[8] = biological target: T1, SARS-CoV-2 spike S1B receptor binding …; assay: ELISA, antigen coated at equimolar amounts, mAb titrated; ELISA EC50, not BLI
[9] = biological target: T3, SARS-CoV-2 spike ectodomain …; assay: ELISA, antigen coated at equimolar amounts, mAb titrated
[10] = biological target: T2, SARS-CoV spike [change] receptor …; assay: as above
[11] = biological target: SARS2-S with 18-a.a. cytoplasmic tail truncation, on pseudotyped VSV particles (SARS-CoV-2, UniProt P0DTC2 14-1255); assay: cell-based or functional assay
[12] = biological target: SARS-S with 28-a.a. cytoplasmic tail truncation, on pseudotyped VSV particles (SARS-CoV, UniProt P59594 14-1227); assay: cell-based or functional assay
[13] = biological target: WIV16-S with 19-a.a. cytoplasmic tail truncation, on pseudotyped VSV particles (bat SARS-like coronavirus WIV16); assay: cell-based or functional assay
[14] = biological target: T1, SARS-CoV-2 spike S1B receptor binding …; remark: listed apart in the source
[15] = biological target: T3, SARS-CoV-2 spike ectodomain …; remark: listed apart in the source
[16] = biological target: T2, SARS-CoV spike [change] receptor …; remark: listed apart in the source

Binder	binding result [1]	binding result [2]	EC50 (read off the curve) [3] [µg/mL]	EC50 (read off the curve) [4] [µg/mL]	Kd [5] [nM]	Kd [6] [nM]	Kd [7] [nM]	EC50 [8] [µg/mL]	EC50 [9] [µg/mL]	EC50 [10] [µg/mL]	IC50, infection of VeroE6 cells with SARS2-S pseudotyped VSV (luciferase) [11] [µg/mL]	IC50, infection of VeroE6 cells with SARS-S pseudotyped VSV (luciferase) [12] [µg/mL]	IC50, neutralization of WIV16-S pseudotyped VSV [13] [µg/mL]	koff [14] [s⁻¹]	kon [14] [M⁻¹ s⁻¹]	koff [15] [s⁻¹]	kon [15] [M⁻¹ s⁻¹]	koff [16] [s⁻¹]	kon [16] [M⁻¹ s⁻¹]
B1	no binding (tested: undiluted supernatant)	no binding (tested: undiluted supernatant)	–	–	–	–	–	–	–	–	–	–	–	–	–	–	–	–	–
B2	–	–	~0.1	~0.1	9.6	10.8	16.1	0.03	0.15	0.02	0.08	0.06	0.165	0.000137	15100	9.85e-05	9770	0.00021	20000
